{"source": "patent US9745384B2", "about": "“Peptides useful for modulating histone demethylase function” (The Brigham and Women's Hospital, Inc., priority 2012, dated 2017)", "molecules": {"B1": {"name": "NP.d1: GST-tagged NPAC truncation, PWWP domain, residues 1-150 (protein)", "chain": "MAAVSLRLGDLVWGKLGRYPPWPGKIVNPPKDLKKPRGKKCFFVKFFGTEDHAWIKVEQLKPYHAHKEEMIKINKGKRFQQAVDAVEEFLRRAKGKDQTSSHNSSDDKNRRNSSEERSRPNSGDEKRKLSLSEGKVKKNMGEGKKRVSSG", "modifications": "left off: a dimerising Fc or GST"}, "B2": {"name": "NP.d5: GST-tagged NPAC truncation, dehydrogenase domain, residues 262-553 (protein)", "chain": "SITPTDKKIGFLGLGLMGSGIVSNLLKMGHTVTVWNRTAEKCDLFIQEGARLGRTPAEVVSTCDITFACVSDPKAAKDLVLGPSGVLQGIRPGKCYVDMSTVDADTVTELAQVIVSRGGRFLEAPVSGNQQLSNDGMLVILAAGDRGLYEDCSSCFQAMGKTSFFLGEVGNAAKMMLIVNMVQGSFMATIAEGLTLAHVTGQSQQTLLDILNQGQLASIFLDQKCQNILQGNFKPDFYLKYIQKDLRLAIALGDAVNHPTPMAAAANEVYKRAKALDQSDNDMSAVYRAYIH", "modifications": "left off: a dimerising Fc or GST"}, "B3": {"name": "NP.d2: GST-tagged NPAC truncation, residues 1-252 (protein)", "chain": "MAAVSLRLGDLVWGKLGRYPPWPGKIVNPPKDLKKPRGKKCFFVKFFGTEDHAWIKVEQLKPYHAHKEEMIKINKGKRFQQAVDAVEEFLRRAKGKDQTSSHNSSDDKNRRNSSEERSRPNSGDEKRKLSLSEGKVKKNMGEGKKRVSSGSSERGSKSPLKRAQEQSPRKRGRPPKDEKDLTIPESSTVKGMMAGPMAAFKWQPTASEPVKDADPHFHHFLLSQTEKPAVCYQAITKKLKICEEETGSTSIQ", "modifications": "left off: a dimerising Fc or GST"}, "B4": {"name": "NP.d3: GST-tagged NPAC truncation, residues 152-252 (protein)", "chain": "SERGSKSPLKRAQEQSPRKRGRPPKDEKDLTIPESSTVKGMMAGPMAAFKWQPTASEPVKDADPHFHHFLLSQTEKPAVCYQAITKKLKICEEETGSTSIQ", "modifications": "left off: a dimerising Fc or GST"}, "B5": {"name": "NP.d4: GST-tagged NPAC truncation, residues 152-553 (protein)", "chain": "SERGSKSPLKRAQEQSPRKRGRPPKDEKDLTIPESSTVKGMMAGPMAAFKWQPTASEPVKDADPHFHHFLLSQTEKPAVCYQAITKKLKICEEETGSTSIQAADSTAVNGSITPTDKKIGFLGLGLMGSGIVSNLLKMGHTVTVWNRTAEKCDLFIQEGARLGRTPAEVVSTCDITFACVSDPKAAKDLVLGPSGVLQGIRPGKCYVDMSTVDADTVTELAQVIVSRGGRFLEAPVSGNQQLSNDGMLVILAAGDRGLYEDCSSCFQAMGKTSFFLGEVGNAAKMMLIVNMVQGSFMATIAEGLTLAHVTGQSQQTLLDILNQGQLASIFLDQKCQNILQGNFKPDFYLKYIQKDLRLAIALGDAVNHPTPMAAAANEVYKRAKALDQSDNDMSAVYRAYIH", "modifications": "left off: a dimerising Fc or GST"}, "B6": {"name": "NP.d6: NPAC with deletion of the linker region (residues 152-252) (protein)", "chain": "MAAVSLRLGDLVWGKLGRYPPWPGKIVNPPKDLKKPRGKKCFFVKFFGTEDHAWIKVEQLKPYHAHKEEMIKINKGKRFQQAVDAVEEFLRRAKGKDQTSSHNSSDDKNRRNSSEERSRPNSGDEKRKLSLSEGKVKKNMGEGKKRVSSGSAADSTAVNGSITPTDKKIGFLGLGLMGSGIVSNLLKMGHTVTVWNRTAEKCDLFIQEGARLGRTPAEVVSTCDITFACVSDPKAAKDLVLGPSGVLQGIRPGKCYVDMSTVDADTVTELAQVIVSRGGRFLEAPVSGNQQLSNDGMLVILAAGDRGLYEDCSSCFQAMGKTSFFLGEVGNAAKMMLIVNMVQGSFMATIAEGLTLAHVTGQSQQTLLDILNQGQLASIFLDQKCQNILQGNFKPDFYLKYIQKDLRLAIALGDAVNHPTPMAAAANEVYKRAKALDQSDNDMSAVYRAYIH", "modifications": "left off: a dimerising Fc or GST; small tags and cut ends"}, "B7": {"name": "NP.d9: NP.d3 with deletion of amino acids 214-222 (protein)", "chain": "SERGSKSPLKRAQEQSPRKRGRPPKDEKDLTIPESSTVKGMMAGPMAAFKWQPTASEPVKDASQTEKPAVCYQAITKKLKICEEETGSTSIQ", "modifications": "left off: a dimerising Fc or GST; small tags and cut ends"}}, "key": {"LSD2 (residues 51-822)": {"target": "T1, LSD2 (residues 51-822) (Homo sapiens, UniProt Q8NB78)", "T1 construct": "Human LSD2 (residues 51-822) was subcloned into a pFastBacl derivative; His6 (cleaved yes); made in house; host or cells: Sf9 insect cells (baculovirus)", "T1 sequence (Q8NB78 51-822)": "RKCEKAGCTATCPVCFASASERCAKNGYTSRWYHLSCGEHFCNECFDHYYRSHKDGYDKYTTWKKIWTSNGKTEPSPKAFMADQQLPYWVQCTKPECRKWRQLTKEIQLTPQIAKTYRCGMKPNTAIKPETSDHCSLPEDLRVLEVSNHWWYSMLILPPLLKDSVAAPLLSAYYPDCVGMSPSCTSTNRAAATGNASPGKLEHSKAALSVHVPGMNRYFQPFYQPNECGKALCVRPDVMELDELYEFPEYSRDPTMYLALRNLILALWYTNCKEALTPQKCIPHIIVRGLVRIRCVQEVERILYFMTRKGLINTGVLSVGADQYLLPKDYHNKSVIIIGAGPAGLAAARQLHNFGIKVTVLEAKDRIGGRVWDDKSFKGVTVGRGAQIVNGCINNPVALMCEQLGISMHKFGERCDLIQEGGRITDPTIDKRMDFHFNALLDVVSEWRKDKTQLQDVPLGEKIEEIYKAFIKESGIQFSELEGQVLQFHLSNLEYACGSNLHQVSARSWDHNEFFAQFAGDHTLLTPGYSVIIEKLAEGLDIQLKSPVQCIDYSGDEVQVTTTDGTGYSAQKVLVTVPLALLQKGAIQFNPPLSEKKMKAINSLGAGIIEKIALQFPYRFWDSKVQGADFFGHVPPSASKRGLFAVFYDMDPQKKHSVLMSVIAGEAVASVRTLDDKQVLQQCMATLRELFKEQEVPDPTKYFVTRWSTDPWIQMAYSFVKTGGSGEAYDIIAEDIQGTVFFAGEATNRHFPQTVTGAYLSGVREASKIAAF", "assay": "ITC binding of wild-type and mutant NPAC peptides (residues 214-225) with LSD2", "conditions": "15 °C; 3 mM NPAC peptide injected into 0.2 mM LSD2", "method": "All proteins and peptides were prepared in 10 mM HEPES, pH 8.0, and 0.1 M NaCl. The data were fitted by software Origin 7.0."}, "His-LSD2 [1]": {"target": "T2, His-LSD2 (Homo sapiens, UniProt Q8NB78)", "T2 construct": "typically 0.5 μg full-length His-LSD2; made in house; host or cells: Sf9 insect cells", "T2 sequence (Q8NB78 1-822)": "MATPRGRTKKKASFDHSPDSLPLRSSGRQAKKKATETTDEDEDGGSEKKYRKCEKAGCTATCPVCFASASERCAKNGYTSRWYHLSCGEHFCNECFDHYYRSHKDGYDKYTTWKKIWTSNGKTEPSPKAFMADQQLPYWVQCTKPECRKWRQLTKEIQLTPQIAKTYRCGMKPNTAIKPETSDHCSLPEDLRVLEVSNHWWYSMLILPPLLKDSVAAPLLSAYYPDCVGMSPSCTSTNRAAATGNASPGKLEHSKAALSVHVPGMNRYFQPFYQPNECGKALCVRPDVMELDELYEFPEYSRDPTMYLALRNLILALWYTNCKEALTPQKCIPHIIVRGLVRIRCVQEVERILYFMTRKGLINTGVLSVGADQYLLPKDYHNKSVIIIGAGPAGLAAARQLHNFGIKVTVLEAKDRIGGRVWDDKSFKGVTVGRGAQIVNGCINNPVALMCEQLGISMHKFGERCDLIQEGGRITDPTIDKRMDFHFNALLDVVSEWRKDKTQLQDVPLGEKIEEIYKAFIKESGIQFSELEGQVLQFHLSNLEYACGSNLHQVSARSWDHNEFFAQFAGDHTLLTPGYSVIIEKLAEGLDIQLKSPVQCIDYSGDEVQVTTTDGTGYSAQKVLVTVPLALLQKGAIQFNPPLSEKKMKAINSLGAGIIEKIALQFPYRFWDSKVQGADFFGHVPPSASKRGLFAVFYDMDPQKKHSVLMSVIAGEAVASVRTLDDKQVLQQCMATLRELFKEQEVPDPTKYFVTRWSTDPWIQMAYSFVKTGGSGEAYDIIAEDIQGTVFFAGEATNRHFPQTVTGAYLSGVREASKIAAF", "assay": "Nucleosome demethylation assay (NPAC cofactor activity for LSD2, immunoblot)", "format": "biochemical", "conditions": "threshold dosage of His-LSD2; nucleosomes purified from HeLa", "method": "For nucleosome demethylation assays, typically 0.5 μg full-length His-LSD2, 1 μg NPAC protein or peptides, and 2 μg nucleosomes purified from HeLa were used, and demethylation efficiency was analyzed by SDS-PAGE electrophoresis and immunoblot using methylation specific anti-histone H3 antibodies as previously described (Shi et al. 2004)."}, "His-LSD2 [2]": {"target": "T2, His-LSD2", "assay": "GST-pulldown of His-LSD2 by GST-NPAC proteins", "format": "binding", "conditions": "coomassie blue staining", "method": "[…] GST or GST-NPAC fusion proteins were bound to glutathione agarose, and were incubated with 2 μg full-length His-LSD2 overnight in 50 mM NaPO4 pH 7.4, 150 mM NaCl, 0.5% NP-40, 5% glycerol, 10 μM ZnSO4, 1 mM MgCl2, 1 mM DTT, 0.1 mM PMSF at 4° C. After washed 4 times with same buffer at 4° C., glutathione agarose beads were boiled in 1×SDS sample loading buffer. Elute was resolved on a 15% SDS-PAGE gel and stained by coomassie blue."}}, "note": "Ends that are not written are not given here.", "data": [{"molecule": "CC(C)C[C@H](NC(=O)[C@H](Cc1ccccc1)NC(=O)[C@H](Cc1c[nH]cn1)NC(=O)[C@H](Cc1c[nH]cn1)NC(=O)[C@H](C)NC(=O)[C@H](C)NC(=O)[C@@H]1CCCN1C(=O)[C@H](C)N)C(=O)N[C@@H](CC(C)C)C(=O)N[C@@H](CO)C(=O)N[C@@H](CCC(N)=O)C(=O)N[C@H](C(=O)O)[C@@H](C)O", "note": "[NPAC.214-225.M8]", "values": [{"measurement": "Δ H", "setting": "LSD2 (residues 51-822)", "value": "-8288 ± 101", "unit": "cal/mol"}, {"measurement": "Δ S", "setting": "LSD2 (residues 51-822)", "value": "−1.3", "unit": "cal/mol/deg"}]}, {"molecule": "NP.d7: NPAC residues 152-186, containing the AT hook motif (SERGSKSPLKRAQEQSPRKRGRPPKDEKDLTIPES; also: fused to dimerising Fc or GST)", "values": [{"measurement": "Cofactor activity: stimulation of LSD2 demethylation of nucleosomal H3K4me2", "setting": "His-LSD2 [1]", "value": "but not NP.d7 or NP.d9, significantly enhances LSD2 histone demethylase activity"}, {"measurement": "LSD2 binding (GST-pulldown)", "setting": "His-LSD2 [2]", "value": "but not NP.d7 (residues 152-186, containing the AT hook motif, lane 4), is sufficient for LSD2 interaction"}]}, {"molecule": "B1", "values": [{"measurement": "Cofactor activity: stimulation of LSD2 demethylation of nucleosomal H3K4me2", "setting": "His-LSD2 [1]", "value": "Neither the PWWP domain (SEQ ID NO: 63) (NP.d1, residues 1-150) nor the dehydrogenase domain (NP.d5, residues 262-553) stimulated LSD2"}, {"measurement": "LSD2 binding (GST-pulldown)", "setting": "His-LSD2 [2]", "value": "Neither the PWWP domain (SEQ ID NO: 63) (NP.d1) nor the dehydrogenase domain (NP.d5) interacts with LSD2"}]}, {"molecule": "B2", "values": [{"measurement": "Cofactor activity: stimulation of LSD2 demethylation of nucleosomal H3K4me2", "setting": "His-LSD2 [1]", "value": "Neither the PWWP domain (SEQ ID NO: 63) (NP.d1, residues 1-150) nor the dehydrogenase domain (NP.d5, residues 262-553) stimulated LSD2"}, {"measurement": "LSD2 binding (GST-pulldown)", "setting": "His-LSD2 [2]", "value": "Neither the PWWP domain (SEQ ID NO: 63) (NP.d1) nor the dehydrogenase domain (NP.d5) interacts with LSD2"}]}, {"molecule": "B3", "values": [{"measurement": "Cofactor activity: stimulation of LSD2 demethylation of nucleosomal H3K4me2", "setting": "His-LSD2 [1]", "value": "significantly enhance LSD2 demethylase activity"}, {"measurement": "LSD2 binding (GST-pulldown)", "setting": "His-LSD2 [2]", "value": "capable of directly interacting with LSD2"}]}, {"molecule": "B4", "values": [{"measurement": "Cofactor activity: stimulation of LSD2 demethylation of nucleosomal H3K4me2", "setting": "His-LSD2 [1]", "value": "significantly enhance LSD2 demethylase activity"}, {"measurement": "LSD2 binding (GST-pulldown)", "setting": "His-LSD2 [2]", "value": "capable of directly interacting with LSD2"}]}, {"molecule": "B5", "values": [{"measurement": "Cofactor activity: stimulation of LSD2 demethylation of nucleosomal H3K4me2", "setting": "His-LSD2 [1]", "value": "significantly enhance LSD2 demethylase activity"}, {"measurement": "LSD2 binding (GST-pulldown)", "setting": "His-LSD2 [2]", "value": "capable of directly interacting with LSD2"}]}, {"molecule": "B6", "values": [{"measurement": "Cofactor activity: stimulation of LSD2 demethylation of nucleosomal H3K4me2", "setting": "His-LSD2 [1]", "value": "abolishes cofactor activity"}, {"measurement": "LSD2 binding (GST-pulldown)", "setting": "His-LSD2 [2]", "value": "abolishes NPAC-LSD2 interaction"}]}, {"molecule": "B7", "values": [{"measurement": "Cofactor activity: stimulation of LSD2 demethylation of nucleosomal H3K4me2", "setting": "His-LSD2 [1]", "value": "but not NP.d7 or NP.d9, significantly enhances LSD2 histone demethylase activity"}, {"measurement": "LSD2 binding (GST-pulldown)", "setting": "His-LSD2 [2]", "value": "completely abolishes LSD2 binding"}]}]}
